Experimental data as given in patent US20220204580A1 (AstraZeneca / MedImmune, published 2022).
Numbered stars: 1 amine (or outer) side, 2 acyl side, 3 side chain; on linkers, the order of the positions; unused ones are H or OH. Bridge positions count the residues as written; N and C are the ends. Square brackets hold non-standard residues; d marks the D form. Side chains are listed from the residue outwards. Ends that are not written are not given here. * marks the point of attachment. C20 diacid = O=C(O)CCCCCCCCCCCCCCCCCCC(=O)*; C18 diacid = O=C(O)CCCCCCCCCCCCCCCCC(=O)*; γGlu = O=C(O)[C@H](CCC(=O)[*:2])N[*:1]; αMeF = C[C@](N)(Cc1ccccc1)C(=O)O; Aib = CC(C)(N)C(=O)O

T1: human calcitonin receptor (human, UniProt P30988 25-474)
T1 sequence (looked up): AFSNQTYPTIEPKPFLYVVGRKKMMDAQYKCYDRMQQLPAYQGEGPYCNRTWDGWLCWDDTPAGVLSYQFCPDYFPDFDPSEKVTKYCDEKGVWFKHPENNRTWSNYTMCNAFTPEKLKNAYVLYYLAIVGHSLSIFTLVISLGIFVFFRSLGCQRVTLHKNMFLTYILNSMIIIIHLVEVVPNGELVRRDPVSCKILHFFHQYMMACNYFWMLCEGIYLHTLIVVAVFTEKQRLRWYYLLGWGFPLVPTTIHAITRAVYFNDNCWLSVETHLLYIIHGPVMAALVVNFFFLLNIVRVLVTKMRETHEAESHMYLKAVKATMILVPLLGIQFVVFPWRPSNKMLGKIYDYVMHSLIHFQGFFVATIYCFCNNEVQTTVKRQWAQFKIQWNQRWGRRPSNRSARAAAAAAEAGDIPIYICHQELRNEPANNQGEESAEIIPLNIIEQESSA

T2: human amylin receptor (calcitonin receptor co-expressed with receptor activity modifying protein, RAMP3) (human, UniProt P30988 25-474; O60896 24-148)
T2 sequence (looked up) 1: T1 sequence (looked up)
T2 sequence (looked up) 2: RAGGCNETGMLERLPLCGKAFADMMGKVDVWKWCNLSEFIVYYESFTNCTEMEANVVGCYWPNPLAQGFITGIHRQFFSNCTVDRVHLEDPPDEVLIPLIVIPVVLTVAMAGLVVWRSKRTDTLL

B1: Peptide 118 (SEQ ID NO: 118) (peptide)
peptide: K([γGlu-γGlu-C20 diacid])CNIATCATQRLANFLVHSIANFGPILPPTNVGSRTY-NH2
modifications: disulfide 2-7; N-terminus assumed
SMILES: CC[C@H](C)[C@H](NC(=O)[C@H](CO)NC(=O)[C@H](Cc1c[nH]cn1)NC(=O)[C@@H](NC(=O)[C@H](CC(C)C)NC(=O)[C@H](Cc1ccccc1)NC(=O)[C@H](CC(N)=O)NC(=O)[C@H](C)NC(=O)[C@H](CC(C)C)NC(=O)[C@H](CCCNC(=N)N)NC(=O)[C@H](CCC(N)=O)NC(=O)[C@@H](NC(=O)[C@H](C)NC(=O)[C@@H]1CSSC[C@H](NC(=O)[C@@H](N)CCCCNC(=O)CC[C@H](NC(=O)CC[C@H](NC(=O)CCCCCCCCCCCCCCCCCCC(=O)O)C(=O)O)C(=O)O)C(=O)N[C@@H](CC(N)=O)C(=O)N[C@@H]([C@@H](C)CC)C(=O)N[C@@H](C)C(=O)N[C@@H]([C@@H](C)O)C(=O)N1)[C@@H](C)O)C(C)C)C(=O)N[C@@H](C)C(=O)N[C@@H](CC(N)=O)C(=O)N[C@@H](Cc1ccccc1)C(=O)NCC(=O)N1CCC[C@H]1C(=O)N[C@H](C(=O)N[C@@H](CC(C)C)C(=O)N1CCC[C@H]1C(=O)N1CCC[C@H]1C(=O)N[C@H](C(=O)N[C@@H](CC(N)=O)C(=O)N[C@H](C(=O)NCC(=O)N[C@@H](CO)C(=O)N[C@@H](CCCNC(=N)N)C(=O)N[C@H](C(=O)N[C@@H](Cc1ccc(O)cc1)C(N)=O)[C@@H](C)O)C(C)C)[C@@H](C)O)[C@@H](C)CC
B2: Peptide 110 (SEQ ID NO: 110) (peptide)
peptide: K([γGlu-C18 diacid])KCNTATCATQRLANFLVHSSNNF[Aib]PILPPTNVGSNTY-NH2
modifications: disulfide 3-8; N-terminus assumed
SMILES: CC[C@H](C)[C@H](NC(=O)[C@@H]1CCCN1C(=O)C(C)(C)NC(=O)[C@H](Cc1ccccc1)NC(=O)[C@H](CC(N)=O)NC(=O)[C@H](CC(N)=O)NC(=O)[C@H](CO)NC(=O)[C@H](CO)NC(=O)[C@H](Cc1c[nH]cn1)NC(=O)[C@@H](NC(=O)[C@H](CC(C)C)NC(=O)[C@H](Cc1ccccc1)NC(=O)[C@H](CC(N)=O)NC(=O)[C@H](C)NC(=O)[C@H](CC(C)C)NC(=O)[C@H](CCCNC(=N)N)NC(=O)[C@H](CCC(N)=O)NC(=O)[C@@H](NC(=O)[C@H](C)NC(=O)[C@@H]1CSSC[C@H](NC(=O)[C@H](CCCCN)NC(=O)[C@@H](N)CCCCNC(=O)CC[C@H](NC(=O)CCCCCCCCCCCCCCCCC(=O)O)C(=O)O)C(=O)N[C@@H](CC(N)=O)C(=O)N[C@@H]([C@@H](C)O)C(=O)N[C@@H](C)C(=O)N[C@@H]([C@@H](C)O)C(=O)N1)[C@@H](C)O)C(C)C)C(=O)N[C@@H](CC(C)C)C(=O)N1CCC[C@H]1C(=O)N1CCC[C@H]1C(=O)N[C@H](C(=O)N[C@@H](CC(N)=O)C(=O)N[C@H](C(=O)NCC(=O)N[C@@H](CO)C(=O)N[C@@H](CC(N)=O)C(=O)N[C@H](C(=O)N[C@@H](Cc1ccc(O)cc1)C(N)=O)[C@@H](C)O)C(C)C)[C@@H](C)O
B3: Peptide 119 (SEQ ID NO: 119) (peptide)
peptide: K([γGlu-γGlu-C20 diacid])CNTATCATQRLANFLVHSPPNFPAILSPTNVGSNTY-NH2
modifications: disulfide 2-7; N-terminus assumed
SMILES: CC[C@H](C)[C@H](NC(=O)[C@H](C)NC(=O)[C@@H]1CCCN1C(=O)[C@H](Cc1ccccc1)NC(=O)[C@H](CC(N)=O)NC(=O)[C@@H]1CCCN1C(=O)[C@@H]1CCCN1C(=O)[C@H](CO)NC(=O)[C@H](Cc1c[nH]cn1)NC(=O)[C@@H](NC(=O)[C@H](CC(C)C)NC(=O)[C@H](Cc1ccccc1)NC(=O)[C@H](CC(N)=O)NC(=O)[C@H](C)NC(=O)[C@H](CC(C)C)NC(=O)[C@H](CCCNC(=N)N)NC(=O)[C@H](CCC(N)=O)NC(=O)[C@@H](NC(=O)[C@H](C)NC(=O)[C@@H]1CSSC[C@H](NC(=O)[C@@H](N)CCCCNC(=O)CC[C@H](NC(=O)CC[C@H](NC(=O)CCCCCCCCCCCCCCCCCCC(=O)O)C(=O)O)C(=O)O)C(=O)N[C@@H](CC(N)=O)C(=O)N[C@@H]([C@@H](C)O)C(=O)N[C@@H](C)C(=O)N[C@@H]([C@@H](C)O)C(=O)N1)[C@@H](C)O)C(C)C)C(=O)N[C@@H](CC(C)C)C(=O)N[C@@H](CO)C(=O)N1CCC[C@H]1C(=O)N[C@H](C(=O)N[C@@H](CC(N)=O)C(=O)N[C@H](C(=O)NCC(=O)N[C@@H](CO)C(=O)N[C@@H](CC(N)=O)C(=O)N[C@H](C(=O)N[C@@H](Cc1ccc(O)cc1)C(N)=O)[C@@H](C)O)C(C)C)[C@@H](C)O
B4: Peptide 111 (SEQ ID NO: 111) (peptide)
peptide: K([γGlu-C18 diacid])KCNTATCATQRLANFLVHSSNHFGPILPPTNVGSETY-NH2
modifications: disulfide 3-8; N-terminus assumed
SMILES: CC[C@H](C)[C@H](NC(=O)[C@@H]1CCCN1C(=O)CNC(=O)[C@H](Cc1ccccc1)NC(=O)[C@H](Cc1c[nH]cn1)NC(=O)[C@H](CC(N)=O)NC(=O)[C@H](CO)NC(=O)[C@H](CO)NC(=O)[C@H](Cc1c[nH]cn1)NC(=O)[C@@H](NC(=O)[C@H](CC(C)C)NC(=O)[C@H](Cc1ccccc1)NC(=O)[C@H](CC(N)=O)NC(=O)[C@H](C)NC(=O)[C@H](CC(C)C)NC(=O)[C@H](CCCNC(=N)N)NC(=O)[C@H](CCC(N)=O)NC(=O)[C@@H](NC(=O)[C@H](C)NC(=O)[C@@H]1CSSC[C@H](NC(=O)[C@H](CCCCN)NC(=O)[C@@H](N)CCCCNC(=O)CC[C@H](NC(=O)CCCCCCCCCCCCCCCCC(=O)O)C(=O)O)C(=O)N[C@@H](CC(N)=O)C(=O)N[C@@H]([C@@H](C)O)C(=O)N[C@@H](C)C(=O)N[C@@H]([C@@H](C)O)C(=O)N1)[C@@H](C)O)C(C)C)C(=O)N[C@@H](CC(C)C)C(=O)N1CCC[C@H]1C(=O)N1CCC[C@H]1C(=O)N[C@H](C(=O)N[C@@H](CC(N)=O)C(=O)N[C@H](C(=O)NCC(=O)N[C@@H](CO)C(=O)N[C@@H](CCC(=O)O)C(=O)N[C@H](C(=O)N[C@@H](Cc1ccc(O)cc1)C(N)=O)[C@@H](C)O)C(C)C)[C@@H](C)O
B5: Peptide 117 (SEQ ID NO: 117) (peptide)
peptide: K([γGlu-γGlu-C20 diacid])CNTATCATQRLANFLVHSS[Aib]NFPAILSPTNVGSNTY-NH2
modifications: disulfide 2-7; N-terminus assumed
SMILES: CC[C@H](C)[C@H](NC(=O)[C@H](C)NC(=O)[C@@H]1CCCN1C(=O)[C@H](Cc1ccccc1)NC(=O)[C@H](CC(N)=O)NC(=O)C(C)(C)NC(=O)[C@H](CO)NC(=O)[C@H](CO)NC(=O)[C@H](Cc1c[nH]cn1)NC(=O)[C@@H](NC(=O)[C@H](CC(C)C)NC(=O)[C@H](Cc1ccccc1)NC(=O)[C@H](CC(N)=O)NC(=O)[C@H](C)NC(=O)[C@H](CC(C)C)NC(=O)[C@H](CCCNC(=N)N)NC(=O)[C@H](CCC(N)=O)NC(=O)[C@@H](NC(=O)[C@H](C)NC(=O)[C@@H]1CSSC[C@H](NC(=O)[C@@H](N)CCCCNC(=O)CC[C@H](NC(=O)CC[C@H](NC(=O)CCCCCCCCCCCCCCCCCCC(=O)O)C(=O)O)C(=O)O)C(=O)N[C@@H](CC(N)=O)C(=O)N[C@@H]([C@@H](C)O)C(=O)N[C@@H](C)C(=O)N[C@@H]([C@@H](C)O)C(=O)N1)[C@@H](C)O)C(C)C)C(=O)N[C@@H](CC(C)C)C(=O)N[C@@H](CO)C(=O)N1CCC[C@H]1C(=O)N[C@H](C(=O)N[C@@H](CC(N)=O)C(=O)N[C@H](C(=O)NCC(=O)N[C@@H](CO)C(=O)N[C@@H](CC(N)=O)C(=O)N[C@H](C(=O)N[C@@H](Cc1ccc(O)cc1)C(N)=O)[C@@H](C)O)C(C)C)[C@@H](C)O

Each binder was assayed against T1, human calcitonin receptor (assay: cell-based or functional assay).

In order of falling “EC50 (cAMP production)” value:
1. B3  34.7 nM
2. B5  3.19 nM
3. K([γGlu-γGlu-C18 diacid])CNTATCATQRLANFLVHSSNN[αMeF]GPILPPTNVGSNTY-NH2 (disulfide 2-7) [Peptide 13 (SEQ ID NO: 13)]  2.04 nM
4. B4  1.88 nM
5. B1  0.792 nM
6. B2  0.541 nM

The binders below were run against T2, human amylin receptor (calcitonin …) (assay: cell-based or functional assay).

In order of rising “EC50 (cAMP production)” value:
1. K([γGlu-γGlu-C18 diacid])CNTATCATQRLANFLVHSSNN[αMeF]GPILPPTNVGSNTY-NH2 (disulfide 2-7) [Peptide 13 (SEQ ID NO: 13)]  0.196 nM
2. B2  0.204 nM
3. B4  0.403 nM
4. B1  0.417 nM
5. B5  0.77 nM
6. B3  1.46 nM

In order of rising “Ratio (EC50 hCTR / EC50 hAMYR3)” value:
1. B1  2
2. B2  3
3. B5  4
4. B4  5
5. K([γGlu-γGlu-C18 diacid])CNTATCATQRLANFLVHSSNN[αMeF]GPILPPTNVGSNTY-NH2 (disulfide 2-7) [Peptide 13 (SEQ ID NO: 13)]  10
6. B3  24
